B1: CPXM2 (parent)
chain: TASTKNCMVGYDMGATRCDFTLSK
B2: MLL5 (parent)
chain: HDDGYMICCDKCSVWQHIDCMGID

Variants of: B1
Experiment: protein stability index of a GFP-peptide fusion (GPS, HEK-293T) (PSI 1-6); higher = more stable
Conditions: c terminus: a fixed tail appended
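Also: lentivirally expressed fusions sorted by FACS into six bins by GFP to DsRed ratio, PSI derived from sequencing read proportions per bin multiplied by bin number.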

Point of comparison: C18K, protein stability index 3.57. Against it:
- N6D — lower, 3.5
- N6T — lower, 3.1
- N6R — lower, 2.04
- N6Q — lower, 2.72
- N6A — lower, 2.69
- N6I — lower, 1.89
- N6K — lower, 1.87
- N6W — lower, 2.34
- T16F — lower, 1.75
- T16Y — lower, 2.17
- T16H — lower, 2.47
- T16R — lower, 3.06
- T16D — higher, 3.72
- T16V — lower, 2.66
- T16W — lower, 2.39
- T16Q — lower, 2.86
- D12H — lower, 2.14
- D12V — lower, 2.44
- D12A — lower, 2.37
- D12C — lower, 1.88
- D12E — lower, 2.02
- D12S — lower, 2.72
- D12M — lower, 1.46
- G14R — lower, 2.88
- G14N — lower, 3.17
- G14P — lower, 2.84
- G14C — lower, 1.99
- G14A — lower, 2.89
- C18M — lower, 2.59
- C18V — lower, 2.19
- C18T — lower, 2.66
- C18N — lower, 2.43
- C18A — lower, 2.04
- T4M — lower, 2.58
- T4S — lower, 1.93
- T4H — lower, 2
- G10R — lower, 1.84
- G10T — lower, 1.93
- G10Q — lower, 1.73
- G10C — lower, 2.2
- G10F — lower, 1.58
- G10A — lower, 1.97
- G10P — lower, 1.76
- G10D — lower, 2.37
- G10E — lower, 2.69
- G10M — lower, 1.96
- T1C — lower, 1.68
- T1N — lower, 2.51
- T1Q — lower, 2.52
- T1E — lower, 3.37
- S23Y — lower, 2.01
- S23L — lower, 2.67
- S23G — lower, 2.45
- S23D — lower, 2.55
- T21W — lower, 1.67
- T21E — lower, 3.16
- T21S — lower, 2.21
- T21N — lower, 3.06
- T21R — lower, 2.89
- A2K — lower, 2.04
- A2D — higher, 3.75
- A2R — lower, 2.68
- A2E — higher, 3.9
- A2M — lower, 2.41
- A2N — lower, 3.16
- A2S — lower, 2.58
- A2W — lower, 1.73
- M8T — lower, 2.42
- M8A — lower, 1.88
- M8F — lower, 2.73
- M8K — lower, 3.26
- M8W — lower, 2.15
- M8D — higher, 4.13
- M8H — lower, 2.76
- M8V — lower, 2.03
- D19C — lower, 1.91
- D19W — lower, 2.24
- D19I — lower, 1.94
- D19R — lower, 2.9
- D19T — lower, 2.36
- D19E — lower, 2.18
- D19K — lower, 2.67
- R17P — the same, 3.57
- R17S — lower, 3.31
- R17Q — higher, 3.67
- R17G — higher, 3.72
- R17D — higher, 3.96
- R17C — lower, 3.49
- R17N — lower, 3.32
- Y11D — lower, 3.33
- Y11W — lower, 2.23
- Y11A — lower, 2.92
- Y11T — lower, 2.85
- A15F — lower, 2.51
- A15W — lower, 2.71
- A15N — lower, 2.62
- A15E — lower, 2.75
- A15T — lower, 2.37
- A15P — lower, 2.33
- M13A — lower, 2.74
- M13S — lower, 2.81
- M13E — higher, 3.92
- M13N — lower, 3.21
- M13L — lower, 2.58
- M13W — lower, 2.02
- M13K — lower, 1.91
- M13P — lower, 2.31
- M13T — lower, 2.99
- K5D — lower, 3.25
- K5P — lower, 3.18
- K5L — lower, 2.29
- K5W — lower, 1.97
- K5T — lower, 2.35
- K5G — lower, 2.46
- K5Y — lower, 1.72
- K5Q — lower, 2.4
- V9S — lower, 2.36
- V9C — lower, 2.31
- V9A — lower, 2.62
- V9I — lower, 2.49
- V9T — lower, 3.22
- V9F — lower, 1.63
- V9Y — lower, 2
- V9P — lower, 2.89
- V9G — lower, 3.52
- F20A — lower, 2.51
- F20T — higher, 3.88
- F20S — lower, 2.99
- F20C — lower, 2.52
- F20K — higher, 3.67
- F20N — lower, 2.98
- F20I — lower, 2.69
- K24Q — lower, 1.82
- K24Y — lower, 2.73
- K24E — lower, 2.62
- K24I — higher, 3.76
- K24F — higher, 4.01
- K24D — lower, 2.37
- K24S — lower, 2.22
- C7G — higher, 3.75
- C7L — lower, 3.27
- C7T — lower, 3.24
- C7A — higher, 3.74
- C7M — lower, 3.06
- L22H — lower, 3.06
- L22P — lower, 2.48
- L22V — lower, 2.52
- L22C — lower, 2.42
- L22N — lower, 3.41
- L22Y — lower, 2.26
- L22M — lower, 2.39
- L22D — higher, 3.58
- S3V — lower, 3.26
- S3H — lower, 1.97
- S3Q — lower, 1.91
- S3R — lower, 1.28
- S3T — lower, 2.4
- S3M — lower, 2.1
- S3P — lower, 2.57

Variants of: B2
Experiment: as above
Conditions: c terminus: a fixed tail appended

Point of comparison: I18G, protein stability index 3.5. Against it:
- H17F — lower, 1.65
- H17D — lower, 2.5
- H17V — lower, 2.8
- M21Y — lower, 2.21
- M21S — lower, 2.41
- M21I — lower, 2.5
- M21T — lower, 2.91
- M21C — lower, 2.78
- M21H — lower, 2.61
- M21K — lower, 2.81
- M21P — lower, 3.14
- K11G — lower, 3.03
- K11V — lower, 1.5
- K11R — lower, 1.85
- K11T — lower, 1.81
- K11I — lower, 2
- K11E — lower, 2.39
- K11A — lower, 1.82
- D2A — lower, 1.76
- D2Q — lower, 2.04
- D2F — lower, 2.23
- D2Y — lower, 1.93
- D2T — lower, 2.99
- D2I — lower, 2.87
- D2L — lower, 3.26
- D10T — lower, 1.69
- D10I — higher, 3.54
- D10R — lower, 2.4
- D10S — lower, 2.72
- D10V — lower, 3.07
- C12M — lower, 2.05
- C12A — lower, 2.71
- C12N — lower, 3.05
- C12K — lower, 3.46
- C12H — lower, 2.65
- I7C — higher, 3.79
- I7E — lower, 3.23
- I7G — higher, 3.82
- I7N — lower, 3.12
- I7Y — lower, 2.77
- I7T — lower, 2.93
- I18W — lower, 2.38
- I18H — higher, 3.6
- I18V — lower, 1.99
- I18M — lower, 3.14
- I18N — lower, 2.52
- I18K — lower, 3.36
- I18T — lower, 2.44
- G4L — lower, 1.64
- G4I — lower, 1.51
- G4F — lower, 1.94
- G4R — lower, 2.73
- G4P — lower, 2.69
- H1N — lower, 2.73
- H1S — lower, 2.81
- H1A — lower, 2.42
- H1D — lower, 2.83
- H1G — lower, 2.25
- H1V — lower, 2.61
- H1C — lower, 2.1
- H1I — lower, 1.98
- C20W — lower, 2.15
- C20T — lower, 2.22
- C20P — lower, 2.31
- C20S — lower, 1.51
- C20M — lower, 1.79
- C20G — lower, 2.19
- C20H — lower, 2.12
- C20L — lower, 1.86
- C20F — lower, 1.28
- D24P — lower, 2
- D24S — lower, 2.35
- D24H — lower, 2.29
- D24N — lower, 2.09
- D24V — lower, 2.47
- D24C — lower, 2.68
- V14A — lower, 2.41
- V14L — lower, 1.78
- V14M — lower, 2.06
- V14P — lower, 3.12
- V14K — lower, 3.22
- V14D — lower, 3.37
- V14H — lower, 3.23
- V14S — lower, 2.77
- C8K — lower, 2.25
- C8P — lower, 3.12
- C8S — lower, 1.83
- C8Q — lower, 2.96
- C8V — lower, 1.64
- C8H — lower, 2.37
- C8W — lower, 1.86
- C8L — lower, 2.46
- Y5R — lower, 3.42
- Y5I — lower, 2.98
- Y5W — lower, 2.03
- Y5L — lower, 2.78
- Y5F — lower, 1.74
- Y5V — lower, 2.96
- Y5C — lower, 3.04
- Y5K — higher, 3.53
- Y5A — lower, 3.46
- Y5E — lower, 3.39
- Y5Q — lower, 3.19
- Y5M — lower, 2.83
- Q16S — lower, 1.93
- Q16R — lower, 2.48
- Q16I — lower, 1.77
- Q16Y — lower, 1.07
- Q16A — lower, 1.47
- Q16M — lower, 2.65
- Q16N — lower, 2.42
- Q16K — lower, 2.35
- Q16E — lower, 2.6
- Q16D — lower, 2.08
- M6S — lower, 2.91
- M6L — lower, 2.59
- M6E — lower, 2.79
- M6D — lower, 2.96
- M6N — lower, 3.14
- M6A — lower, 3.37
- M6H — higher, 4.05
- W15Y — lower, 2.73
- W15K — higher, 3.61
- W15V — higher, 3.59
- W15P — higher, 3.6
- W15Q — higher, 3.63
- W15D — higher, 4.24
- G22T — lower, 2.19
- G22K — lower, 2.78
- G22N — lower, 2.58
- G22Y — lower, 2.24
- G22Q — lower, 2.17
- G22P — lower, 2.39
- G22D — higher, 3.8
- C9Y — lower, 1.47
- C9G — higher, 3.81
- C9Q — lower, 3
- C9P — lower, 3.03
- C9E — lower, 3.42
- C9D — higher, 3.74
- C9K — lower, 2.85
- I23K — lower, 2.99
- I23R — lower, 2.83
- I23V — lower, 2.95
- I23T — lower, 2.85
- I23Y — lower, 2.34
- I23Q — lower, 2.89
- I23M — lower, 2.36
- S13D — lower, 2.18
- S13H — lower, 2.09
- S13A — lower, 1.73
- S13F — lower, 1.8
- S13W — lower, 2.37
- S13L — lower, 2.18
- S13Q — lower, 2.59
- S13R — lower, 3.31
- S13Y — lower, 1.93
- S13M — lower, 2.45
- D19Y — lower, 1.72
- D19V — lower, 3.42
- D19S — lower, 1.78
- D19A — lower, 2.04
- D19L — lower, 2.14
- D19R — lower, 2.43
- D19P — lower, 2.33
- D19H — lower, 2.2
- D3K — lower, 1.88
- D3A — lower, 2.13
- D3Q — lower, 2.43
- D3P — lower, 2.65
- D3G — lower, 2.47
- D3C — lower, 2.06
- D3R — lower, 2.02

Reference: the supplement of paper PMC10567573
